Measurements reported in US20200317768A1 (published 2020).

T1: human FcγRIIb extracellular domain, C-terminal His-tag (human, UniProt P31994 43-217)
T1 construct: also called humanFcgRIIb; not shown: His-tag added to C-terminus
T1 sequence: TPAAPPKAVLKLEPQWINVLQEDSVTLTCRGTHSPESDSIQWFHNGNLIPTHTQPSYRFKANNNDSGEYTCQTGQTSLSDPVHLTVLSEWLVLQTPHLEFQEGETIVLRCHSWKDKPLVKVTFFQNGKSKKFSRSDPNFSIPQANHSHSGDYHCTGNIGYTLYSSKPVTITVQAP

T2: cynomolgus monkey FcγRIIb extracellular domain, C-terminal His-tag (cynomolgus monkey)
T2 construct: also called cyno FcγRIIb; cynoFcγRIIb; not shown: His-tag added to C-terminus
T2 chain: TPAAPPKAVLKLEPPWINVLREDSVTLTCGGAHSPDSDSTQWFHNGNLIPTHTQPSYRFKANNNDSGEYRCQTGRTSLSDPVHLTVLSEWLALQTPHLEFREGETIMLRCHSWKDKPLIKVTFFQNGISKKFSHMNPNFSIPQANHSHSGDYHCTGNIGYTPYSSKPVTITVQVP

T3: human FcγRIIaR extracellular domain, C-terminal His-tag (human, UniProt P12318 34-217)
T3 construct: also called human FcγRIIa (type R); FcgRIIaR; not shown: His-tag added to C-terminus
T3 chain: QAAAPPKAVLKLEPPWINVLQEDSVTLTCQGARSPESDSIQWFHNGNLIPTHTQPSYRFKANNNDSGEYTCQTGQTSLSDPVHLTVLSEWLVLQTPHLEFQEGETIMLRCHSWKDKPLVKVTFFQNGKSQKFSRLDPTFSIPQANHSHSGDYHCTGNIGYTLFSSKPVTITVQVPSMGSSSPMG

T4: human FcγRIIaH extracellular domain, C-terminal His-tag (human, UniProt P12318 34-217)
T4 construct: also called human FcγRIIa (type H); FcgRIIaH; not shown: His-tag added to C-terminus
T4 sequence: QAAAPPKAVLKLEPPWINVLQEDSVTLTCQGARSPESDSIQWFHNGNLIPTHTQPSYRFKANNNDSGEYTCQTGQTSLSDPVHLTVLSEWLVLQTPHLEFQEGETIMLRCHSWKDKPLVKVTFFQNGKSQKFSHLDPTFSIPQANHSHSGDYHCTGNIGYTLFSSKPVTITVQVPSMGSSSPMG

T5: cynomolgus monkey FcγRIIa2 extracellular domain, C-terminal His-tag (cynomolgus monkey)
T5 construct: also called cyno FcγRIIa2; cynoFcgRIIa2; not shown: His-tag added to C-terminus
T5 chain: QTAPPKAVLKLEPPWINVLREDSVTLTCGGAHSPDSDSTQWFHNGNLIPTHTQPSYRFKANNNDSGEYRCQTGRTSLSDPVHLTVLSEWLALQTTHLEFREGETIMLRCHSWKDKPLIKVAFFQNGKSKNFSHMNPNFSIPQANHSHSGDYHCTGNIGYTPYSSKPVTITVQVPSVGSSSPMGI

T6: cynomolgus monkey FcγRIIa3 extracellular domain, C-terminal His-tag (cynomolgus monkey)
T6 construct: also called cyno FcγRIIa3; cynoFcgRIIa3; not shown: His-tag added to C-terminus
T6 chain: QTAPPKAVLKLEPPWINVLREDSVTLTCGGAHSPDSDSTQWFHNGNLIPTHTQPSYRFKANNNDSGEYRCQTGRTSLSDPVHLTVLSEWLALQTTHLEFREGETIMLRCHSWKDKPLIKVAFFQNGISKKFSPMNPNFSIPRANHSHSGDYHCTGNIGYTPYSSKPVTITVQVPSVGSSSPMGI

T7: cynomolgus monkey FcγRIIa1 extracellular domain, C-terminal His-tag (cynomolgus monkey)
T7 construct: also called cyno FcγRIIa1; cynoFcgRIIa1; not shown: His-tag added to C-terminus
T7 chain: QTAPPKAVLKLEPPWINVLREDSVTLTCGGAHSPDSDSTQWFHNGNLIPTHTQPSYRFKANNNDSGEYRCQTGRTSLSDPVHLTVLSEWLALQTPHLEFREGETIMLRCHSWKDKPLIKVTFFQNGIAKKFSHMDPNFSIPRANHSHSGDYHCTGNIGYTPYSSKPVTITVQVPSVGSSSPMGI


Tests used:
[1] = target: T1, human FcγRIIb extracellular domain, …; assay: SPR (BIACORE); KD of parent SG1 / KD of variant;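 also: relative to parent M103205H795-SG1 carrying the SG1 human heavy chain constant region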
[2] = target: T2, cynomolgus monkey FcγRIIb extracellular …; assay: SPR (BIACORE); KD of parent SG1 / KD of variant;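 also: relative to parent M103205H795-SG1 carrying the SG1 human heavy chain constant region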
[3] = target: T8, human FcγRIIIaV extracellular domain, C-terminal His-tag (human, UniProt P08637 17-208); assay: SPR (BIACORE); KD of parent SG1 / KD of variant;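 also: relative to parent M103205H795-SG1 carrying the SG1 human heavy chain constant region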
T8 construct: also called FcgRIIIaV; not shown: His-tag added to C-terminus
T8 sequence (P08637 17-208 F176V): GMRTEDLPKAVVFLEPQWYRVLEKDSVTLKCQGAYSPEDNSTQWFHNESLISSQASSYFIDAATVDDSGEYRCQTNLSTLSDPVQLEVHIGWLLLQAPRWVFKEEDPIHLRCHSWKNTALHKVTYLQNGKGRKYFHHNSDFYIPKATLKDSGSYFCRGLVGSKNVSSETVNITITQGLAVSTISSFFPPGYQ

[4] = target: T3, human FcγRIIaR extracellular domain, …; assay: SPR (BIACORE); KD of parent SG1 / KD of variant;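 also: relative to parent M103205H795-SG1 carrying the SG1 human heavy chain constant region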
[5] = target: T4, human FcγRIIaH extracellular domain, …; assay: SPR (BIACORE); KD of parent SG1 / KD of variant
[6] = target: T5, cynomolgus monkey FcγRIIa2 …; assay: SPR (BIACORE); KD of parent SG1 / KD of variant
[7] = target: T6, cynomolgus monkey FcγRIIa3 …; assay: SPR (BIACORE); KD of parent SG1 / KD of variant
[8] = target: T9, cynomolgus monkey FcγRIIIaS extracellular domain, C-terminal His-tag (cynomolgus monkey, UniProt A3RFZ7 21-206 (rhesus entry)); assay: SPR (BIACORE); KD of parent SG1 / KD of variant
T9 construct: also called cyno FcγRIIIaS; cynoFcγRIIIaS; not shown: His-tag added to C-terminus
T9 sequence (A3RFZ7 21-206): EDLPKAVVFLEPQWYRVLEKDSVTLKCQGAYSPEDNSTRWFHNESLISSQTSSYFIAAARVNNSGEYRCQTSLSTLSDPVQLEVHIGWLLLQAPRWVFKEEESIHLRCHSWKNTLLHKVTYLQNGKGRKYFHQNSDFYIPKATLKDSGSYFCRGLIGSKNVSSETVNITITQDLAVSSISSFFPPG

[9] = target: T7, cynomolgus monkey FcγRIIa1 …; assay: SPR (BIACORE); KD of parent SG1 / KD of variant
[10] = target: T1, human FcγRIIb extracellular domain, …; assay: SPR (BIACORE), antibody captured, FcγR analyte
[11] = target: T2, cynomolgus monkey FcγRIIb extracellular …; assay: SPR (BIACORE), antibody captured, FcγR analyte
[12] = target: T8, human FcγRIIIaV extracellular domain, …; assay: SPR (BIACORE), antibody captured, FcγR analyte
[13] = target: T3, human FcγRIIaR extracellular domain, …; assay: SPR (BIACORE), antibody captured, FcγR analyte
[14] = target: T4, human FcγRIIaH extracellular domain, …; assay: SPR (BIACORE), antibody captured, FcγR analyte
[15] = target: T5, cynomolgus monkey FcγRIIa2 …; assay: SPR (BIACORE), antibody captured, FcγR analyte
[16] = target: T6, cynomolgus monkey FcγRIIa3 …; assay: SPR (BIACORE), antibody captured, FcγR analyte
[17] = target: T9, cynomolgus monkey FcγRIIIaS …; assay: SPR (BIACORE), antibody captured, FcγR analyte
[18] = target: T7, cynomolgus monkey FcγRIIa1 …; assay: SPR (BIACORE), antibody captured, FcγR analyte

Row | Binder | KD fold (SG1 = 1) [1] | KD fold (SG1 = 1) [2] | KD fold (SG1 = 1) [3] | KD fold (SG1 = 1) [4] | KD fold (SG1 = 1) [5] | KD fold (SG1 = 1) [6] | KD fold (SG1 = 1) [7] | KD fold (SG1 = 1) [8] | KD fold (SG1 = 1) [9] | Kd [10] | Kd [11] | Kd [12] | Kd [13] | Kd [14] | Kd [15] | Kd [16] | Kd [17] | Kd [18]
1 | M103240H795-SG1079 / M103202L1045-SK1 (antibody, CH with G236N/H268D/Q295L/Q311R/A330K/D413K/N434A/Q438R/S440E against SG1 (EU numbering); also called MS1032LO19-SG1079) heavy: QVQLVESGGGLVQPGGSLRLSCAVSGIDLSHDDISWVRQAPGKGLEWVSIISYAGSTYYASWAKGRLTISKDTSKNQVVLTMTNMDPVDTATYYCARGVPAYSHGGDLWGQGTLVTVSSASTKGPSVFPLAPSSKSTSGGTAALGCLVKDYFPEPVTVSWNSGALTSGVHTFPAVLQSSGLYSLSSVVTVPSSSLGTQTYICNVNHKPSNTKVDKKVEPKSCDKTHTCPPCPAPELLNGPSVFLFPPKPKDTLMISRTPEVTCVVVDVSDEDPEVKFNWYVDGVEVHNAKTKPREELYNSTYRVVSVLTVLHRDWLNGKEYKCKVSNKALPKPIEKTISKAKGQPREPQVYTLPPSREEMTKNQVSLTCLVKGFYPSDIAVEWESNGQPENNYKTTPPVLDSDGSFFLYSKLTVKKSRWQQGNVFSCSVMHEALHAHYTRKELSLSP light: DIVMTQSPATLSLSPGERATLSCTTSQSVYHENWLSWFQQKPGQPPKLLIYWASTLAYGVPSRFSGSGSGTDFTLTISSLQPEDAATYYCAGGYGGGRYAFGQGTKVEIKRTVAAPSVFIFPPSDEQLKSGTASVVCLLNNFYPREAKVQWKVDNALQSGNSQESVTEQDSKDSTYSLSSTLTLSKADYEKHKVYACEVTHQGLSSPVTKSFNRGEC | 5.6 fold | 5.7 fold | 0.18 fold | 0.8 fold | 1.4 fold | 3.4 fold | 3.2 fold | 0.08 fold | 3.4 fold | 690 nM | 300 nM | 5200 nM | 1200 nM | 670 nM | 1200 nM | 2100 nM | 3300 nM | 1100 nM
2 | M103240H795-SG1080 / M103202L1045-SK1 (antibody, CH with G236N/H268D/Q295L/Q311R/K326T/A330K/P343R/N434A/Q438R/S440E against SG1 (EU numbering); also called MS1032LO19-SG1080) heavy: QVQLVESGGGLVQPGGSLRLSCAVSGIDLSHDDISWVRQAPGKGLEWVSIISYAGSTYYASWAKGRLTISKDTSKNQVVLTMTNMDPVDTATYYCARGVPAYSHGGDLWGQGTLVTVSSASTKGPSVFPLAPSSKSTSGGTAALGCLVKDYFPEPVTVSWNSGALTSGVHTFPAVLQSSGLYSLSSVVTVPSSSLGTQTYICNVNHKPSNTKVDKKVEPKSCDKTHTCPPCPAPELLNGPSVFLFPPKPKDTLMISRTPEVTCVVVDVSDEDPEVKFNWYVDGVEVHNAKTKPREELYNSTYRVVSVLTVLHRDWLNGKEYKCKVSNTALPKPIEKTISKAKGQRREPQVYTLPPSREEMTKNQVSLTCLVKGFYPSDIAVEWESNGQPENNYKTTPPVLDSDGSFFLYSKLTVDKSRWQQGNVFSCSVMHEALHAHYTRKELSLSP light: DIVMTQSPATLSLSPGERATLSCTTSQSVYHENWLSWFQQKPGQPPKLLIYWASTLAYGVPSRFSGSGSGTDFTLTISSLQPEDAATYYCAGGYGGGRYAFGQGTKVEIKRTVAAPSVFIFPPSDEQLKSGTASVVCLLNNFYPREAKVQWKVDNALQSGNSQESVTEQDSKDSTYSLSSTLTLSKADYEKHKVYACEVTHQGLSSPVTKSFNRGEC | 10.5 fold | 12.6 fold | 0.13 fold | 1.7 fold | 2.1 fold | 6.1 fold | 6.1 fold | 0.19 fold | 5.8 fold | 370 nM | 140 nM | 4600 nM | 560 nM | 450 nM | 680 nM | 1100 nM | 1400 nM | 650 nM
3 | M103240H795-SG1081 / M103202L1045-SK1 (antibody, CH with L235W/G236N/H268D/Q295L/Q311R/K326T/A330K/P343R/N434A/Q438R/S440E against SG1 (EU numbering); also called MS1032LO19-SG1081) heavy: QVQLVESGGGLVQPGGSLRLSCAVSGIDLSHDDISWVRQAPGKGLEWVSIISYAGSTYYASWAKGRLTISKDTSKNQVVLTMTNMDPVDTATYYCARGVPAYSHGGDLWGQGTLVTVSSASTKGPSVFPLAPSSKSTSGGTAALGCLVKDYFPEPVTVSWNSGALTSGVHTFPAVLQSSGLYSLSSVVTVPSSSLGTQTYICNVNHKPSNTKVDKKVEPKSCDKTHTCPPCPAPELWNGPSVFLFPPKPKDTLMISRTPEVTCVVVDVSDEDPEVKFNWYVDGVEVHNAKTKPREELYNSTYRVVSVLTVLHRDWLNGKEYKCKVSNTALPKPIEKTISKAKGQRREPQVYTLPPSREEMTKNQVSLTCLVKGFYPSDIAVEWESNGQPENNYKTTPPVLDSDGSFFLYSKLTVDKSRWQQGNVFSCSVMHEALHAHYTRKELSLSP light: DIVMTQSPATLSLSPGERATLSCTTSQSVYHENWLSWFQQKPGQPPKLLIYWASTLAYGVPSRFSGSGSGTDFTLTISSLQPEDAATYYCAGGYGGGRYAFGQGTKVEIKRTVAAPSVFIFPPSDEQLKSGTASVVCLLNNFYPREAKVQWKVDNALQSGNSQESVTEQDSKDSTYSLSSTLTLSKADYEKHKVYACEVTHQGLSSPVTKSFNRGEC | 7.7 fold | 5.9 fold | 0.17 fold | 1.4 fold | 1 fold | 3.2 fold | 3.1 fold | 0.09 fold | 2.7 fold | 500 nM | 290 nM | 3400 nM | 680 nM | 990 nM | 1800 nM | 2100 nM | 2900 nM | 1400 nM
